According to patent publication US20210063414A1, “METHODS FOR PREVENTING AND/OR TREATING BONE LOSS CONDITIONS BY MODULATING IRISIN” (Dana-Farber Cancer Institute, Inc., priority 2018, published 2021):

Biological target: T1, MLO-Y4 cell surface proteins (Mus musculus, UniProt O88492)
T1 construct: endogenous in cells; host or cells: MLO-Y4
T1 sequence (O88492 1-1403): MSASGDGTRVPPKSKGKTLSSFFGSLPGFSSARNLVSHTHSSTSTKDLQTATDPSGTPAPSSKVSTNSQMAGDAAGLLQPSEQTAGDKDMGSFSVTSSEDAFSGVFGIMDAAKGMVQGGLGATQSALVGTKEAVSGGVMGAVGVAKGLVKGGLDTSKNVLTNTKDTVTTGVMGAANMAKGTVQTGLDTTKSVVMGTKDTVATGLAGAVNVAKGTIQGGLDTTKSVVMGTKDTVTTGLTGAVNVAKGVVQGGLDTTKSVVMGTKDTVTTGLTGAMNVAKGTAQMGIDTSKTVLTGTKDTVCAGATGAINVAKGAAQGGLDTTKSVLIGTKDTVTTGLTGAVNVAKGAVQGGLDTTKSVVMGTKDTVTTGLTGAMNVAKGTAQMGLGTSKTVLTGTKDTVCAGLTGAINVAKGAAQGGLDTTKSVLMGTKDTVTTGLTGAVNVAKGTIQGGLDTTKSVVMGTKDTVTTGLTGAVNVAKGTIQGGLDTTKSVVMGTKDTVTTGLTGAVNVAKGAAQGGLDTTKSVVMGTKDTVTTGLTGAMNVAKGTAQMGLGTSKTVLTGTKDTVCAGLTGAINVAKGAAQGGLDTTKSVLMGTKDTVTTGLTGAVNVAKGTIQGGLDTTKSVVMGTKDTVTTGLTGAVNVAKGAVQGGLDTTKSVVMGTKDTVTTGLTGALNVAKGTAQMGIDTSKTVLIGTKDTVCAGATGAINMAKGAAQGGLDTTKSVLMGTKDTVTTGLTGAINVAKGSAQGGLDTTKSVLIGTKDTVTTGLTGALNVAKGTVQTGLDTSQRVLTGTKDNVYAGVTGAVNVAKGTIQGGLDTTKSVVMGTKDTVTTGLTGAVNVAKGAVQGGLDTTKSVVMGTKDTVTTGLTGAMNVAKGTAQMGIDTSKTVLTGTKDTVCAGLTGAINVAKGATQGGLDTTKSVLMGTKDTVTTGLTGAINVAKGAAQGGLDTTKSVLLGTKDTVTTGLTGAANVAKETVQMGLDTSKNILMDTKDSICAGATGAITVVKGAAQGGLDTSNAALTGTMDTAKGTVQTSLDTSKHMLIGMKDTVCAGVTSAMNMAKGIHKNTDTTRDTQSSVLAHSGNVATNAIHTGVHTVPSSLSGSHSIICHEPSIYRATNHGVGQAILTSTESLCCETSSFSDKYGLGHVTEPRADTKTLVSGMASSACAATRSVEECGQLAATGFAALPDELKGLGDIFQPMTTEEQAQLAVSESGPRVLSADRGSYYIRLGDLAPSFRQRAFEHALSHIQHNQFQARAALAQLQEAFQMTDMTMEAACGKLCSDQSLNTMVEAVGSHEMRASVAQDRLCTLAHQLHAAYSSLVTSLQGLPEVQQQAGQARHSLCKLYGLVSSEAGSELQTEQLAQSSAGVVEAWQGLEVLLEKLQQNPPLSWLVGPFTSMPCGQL
Assay: Crosslinking/co-immunoprecipitation/mass spectrometry (TMT quantitative proteomics) to identify irisin receptors
Format: binding
Settings: co-precipitated protein Plin4 (PLIN4_MOUSE)
Outline: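 Mouse MLO-Y4 cells were switched to serum-free FreeStyle medium for 4 h, chilled, then exposed to 10 nM His-tagged irisin (or adipsin as control) for 20 min. Cells were crosslinked with 1.5 mM DTSSP (30 min, ice), and bound proteins were pulled down on Ni-NTA and eluted with 250 mM imidazole. Eluates were separated by SDS-PAGE, trypsin-digested in gel, TMT 6-plex labelled and quantified by MS3-based LC-MS/MS on an Orbitrap Fusion Lumos.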

B1: irisin: secreted cleaved form of FNDC5; recombinant human/mouse irisin with C-terminal his tag produced in HEK293 cells (protein)
chain: DSPSAPVNVTVRHLKANSAVVSWDVLEDEVVIGFAISQQKKDVRMLRFIQEVNTTTRSCALWDLEEDTEYIVHVQAISIQGQSPASEPVLFKTPREAEKMASKNKDEVTMKE
modifications: left off: small tags and cut ends
notes: secreted cleaved form of FNDC5; recombinant human/mouse irisin with C-terminal his tag produced in HEK293 cells
  TMT signal-to-noise ratio: 18.9196
  irisin/adipsin TMT signal-to-noise ratio: 0.169
